Columns and labels:
Assay in all cases: AlphaScreen or HTRF
[1] = molecular target: DRB1*0813: DRA*0101/DRB1*0813 (human)
[2] = molecular target: DR2a (DRA*0101/DRB5*0101) with non-biotinylated β chain, competitive LOCI assay (human)
[3] = molecular target: DR1GrpE: DR1 α chain 1–181 and β chain 1–190 fused C-terminally to GrpE, not biotinylated (human)
[4] = molecular target: DR2a (DRA*0101/DRB5*0101), biotinylated, direct LOCI assay at pH 6 (human)

Question: Flu HA1194-202 peptide […] was tested. Which Kd [1] did it give?
Answer: 276 nM

Question: And the IC50 [2]?
Answer: 529 nM

Question: And the IC50 [3]?
Answer: 42 nM

Question: What about the Kd [4] of the same substance?
Answer: 167 nM
